In PMC3605307:
Where a chain is given by its changes, count along the chain named. In names and notes the source's numbering stands.

T1: Recombinant UL141 ectodomain (soluble, released from the Fc fusion), Q6RJQ3
T1 chain: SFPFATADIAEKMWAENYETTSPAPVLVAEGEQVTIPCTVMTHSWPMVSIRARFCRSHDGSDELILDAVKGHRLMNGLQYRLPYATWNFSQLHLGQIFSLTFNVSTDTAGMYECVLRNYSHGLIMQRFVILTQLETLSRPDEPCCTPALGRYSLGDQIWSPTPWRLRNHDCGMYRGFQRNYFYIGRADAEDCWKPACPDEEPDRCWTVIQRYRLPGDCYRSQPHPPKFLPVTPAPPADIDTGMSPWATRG

B1: Human TRAIL-R2-Fc fusion protein (wild type), O14763 M152A; R154A; K155A (protein)
chain: QQDLAPQQRAAPQQKRSSPSEGLCPPGHHISEDGRDCISCKYGQDYSTHWNDLLFCLRCTRCDSGEVELSPCTTTRNTVCQCEEGTFREEDSPEACAACRTGCPRGMVKVGDCTPWSDIECVHKESG
B2: Human TRAIL-R2-Fc fusion protein (wild type), O14763 P150A (protein)
chain: B1 chain with P93A, A95M, A97R, A98K
B3: Human TRAIL-R2-Fc fusion protein (wild type), O14763 M152A (protein)
chain: B1 chain with A97R, A98K
B4: Human TRAIL-R2-Fc fusion protein (wild type), O14763 R154A (protein)
chain: B1 chain with A95M, A98K
B5: Human TRAIL-R2-Fc fusion protein (wild type), O14763 K155A (protein)
chain: B1 chain with A95M, A97R

Molecular target: T1, Recombinant UL141 ectodomain (soluble, …)
Test: SPR
Settings: chain shown with the change

Binder	Kd [nM]
B1	7
B2	8
B3	7
B4	6
B5	8
